Results as given in the DeepSol protein solubility set.

assay: soluble on expression in E. coli; label from the status in PepcDB or PDB records

Soluble on expression in E. coli, not soluble:
MGSDKIHHHHHHMKKYLTLAASALLLAACSEKPGYEINGTVANTDLNGKYVYLYEYGVQDAAPMDSALVQNGTFTFKGTQSAPALRKLAFAEDVVEPKRAASGENAPFTSVFVLENGKLQAVLDEAASAVSGTPENDGLKALQAQMKTLRADLEKLSADMKSEDKEVVSAAEKKYDEIDQKVTDAVKTYILNNTTKQSAAKLLYDFRYSLDEAAQNEIIAKADSAFKAVPNIDKLMAHLDVLKTVAVGKKFVDFEMADPNGKTHKLSEFVGNGKNIVLIDFWASWCPPCRRDMPNLVAAYKKYKNKGFEIVGISLDSKADAWAKGVKDLNITWTQLSDLQGWKNSGAQLYGVNSIPHTVLVDKDGTIIAKNLHGEEIDAKLQEILK, MGSDKIHHHHHHMKLAFICTEKLPAPAVRGGAIQMMIDGVTPYFSSRYDLTIFSIEDPSLPKRETKDGVHYIHLPKEHYREAVAEELRASSFDLIHVFNRPLNVSLYKKASPNSKIVLSLHNEMFSEKKMTFAQGKEVLDNVSMITTVSEFIKQTVIERFPEAEDITKVVYSGVDLNSYPPVWTMKGSAVRKTYRKKYGIEDKKVILFAGRLSPTKGPHLLIHSMRRILQQHPDAVLVIAGGKWFSDDSENQYVTYLRTLALPYRDHIIFTKFIPADDIPNLFLMADVFVCSSQWNEPLARVNYEAMAAGTPLITTNRGGNGEVVKHEVTGLVIDSYNKPSSFAKAIDRAFTDQELMNKMTKNARKHVEALFTFTHAAKRLNTVYQSVLTPKNKQFPPPFLTQNFDLSSINQLFVKAKT, MGSDKIHHHHHHMKLGVNLCFAVKRWLEPDRLAGLVRDDLGLEYVQYTYDLTDPWWPDIERDRRAIAYAKAFRKAGLTIESTFGGLASYTYNHFLAPTLELQSLGYQHLKRAIDMTAAMEVPATGMPFGSYSAADALNPARREEIYAIARDMWIELAAYAKRQGLSMLYVEPVPLATEFPSSAADAARLMADLDGRTEIPVRLLVDWGHALFEPLFGPEADMDHWMDLCQPWIAAYHIQQTDGQLDRHWSFTQPGVVTPQRLQDFWDKYALTDQTFFAEILYPFEARDEDVLADMIASVKALKAASPAA, MGSDKIHHHHHHMKLYELAMTPSARRVNIFLKELGLNEQELGLERESLNLRAGDNLSDEFKAISVNGRIPVLELDDGQTLCESVAICRYFDEIITSAHSLFGDTPLEKAQVEMWQRICELQGLFVAFQAFRNITKVYEDRERCVEAWGQESRQRVIEFLPTLEKQLGQQPFVAGQNFSIADITAYVMMSFIKHLEITPSDDQPHLTAWLTKMEQRPSIIAVNG, MGSDKIHHHHHHMKMATTHQSSTKQDILEYLHKHEKATALELAEVLDVTPQAIRRHLKDLETEELVLYSTSVQAAGMGRPQHLYELSRQGRDRLHRTMSDRFGDASGNFAVSLLDTLAETVGHDQFKSILEKQWQRKAKEYRDRVGNGSLRERVANLVELRKAEGFMAEYHAVDVNDTFESDRFILMEHNCAISNVAESFPSICGHELEMFAAVLPDCTVERTHWIIDGEHRCGYLVQVRH, MGSDKIHHHHHHMKMIIGRKIGMTRVFVGNDSVPVTVIKAGPCVVVQKKTVEKDGYNAVQLGFEKAKKVNKPLAGHFKKFGVEPMKILREFRVENPDEYEPGQVIKVDVFEKGEYVDVTGWTKGRGFAGAMKRWGFSGGPKSHGSKFHRELGSVGQHTEPAKIWKGKKMPGRYGNERVTVRNLQVVDIDPENDLLVVKGGVPGARGGLVLIRSAKAPKK, MGSDKIHHHHHHMKNLLGYSEDYLKERKGYITAKEICNQPKLWRETYEIILSQREKLKSFLDNFAKKPNAKIVITGAGSSAFVGNSVVSYLNAKENIKIEAIATTDIVSHPFYYLKKDEPTLLISCARSGNSPESTAAVTLAEKIVDDISHLIITCNSEGKLALHAKRNYNSFLLLMPEESNDKGFAMTGSFSTMLLSCLLIFNLDKLESIGKQIESISMQGEKVLVNNVELMKKIVGEKFKRTVYLGAANAFGLAKESALKVLELTAGKIATLYDTPLGFRHGPKSIIDDETLIVIFFSNDTYAREYEYDLLKEVYSQNGNHKVLAISEYEDKLIEDNSDYFIAINKEEQEYEDDSFLSLDYLLNAQMYAFINSMELGIGPDNPCPTGEVNRVVKGVIIHDYR, MGSDKIHHHHHHMKQFWNWKNYQIAWQVEETSNDSGIAIVLIHGFGACKEHWRFNQKTISSIAPCYALDLIGFGDSSKPNSQIPYEKKTYQNFNYCFDNWSQLVYDFCNEIVKKPVLLIGNSIGGVIALNTSKKLSQKALGVILIDCAQRTMDDKRLAEQSLLMRFLRPVIKTFVRQRLLSSNIFNIAAQPKFIAKILKVAYPSRNNVDEELIDTLFKPTQSKGAPEAFRGFINLFDDYLAPNLLKEMNTSVHLIWGEKDPWEPVKEAQKWFKTFECIKSLDVISDAGHCPHDEMPEKVNPILIKIIQEAI, MGSDKIHHHHHHMKQKNYHSCTVGQIVAGNFDTTKVFSRYHIDFCCHGNTPFAEACRNRGIDPEAVAHELNELQENTVSNAPDFAGWPIDLLIDYVLKIHHRGIRAKGPQIEALLTKVTEAHSKNHPELLQVQALFRDSLLDLENHLSKEENVLFPYVYEMFQAKEEGLKVAKFHCGTILYPIEVMEDEHNHEGERFEKISSLTNGFTAPEDACASFRLVLQQLKQFEEALHEHIHLENNIIFPRALELEKKEAI, MGSDKIHHHHHHMKQNLTLILMNEAVREGWREWMEKVRKVLPQTDAERPVTWIAAERLAQENGRMVRLVELLREHRPVLSYRVKEEAGLLILVAYHRHGSSSDFLLETAEAYFRERDCGGFLFLCRMQASINAYDEYPHLNVLCNRLAGLLFRFRRERASEYRKGIPPMFSGADLQEVEKYLPHLRGCSFREEIALALPKVKNVEELARECAMSVNTLGRRFKEELNTTPHRWLTEQRKAHVTSLLADTDMPLQEIADVCGFATPSYLWDFCKKHLKATPAEIREIARCARTV, MGSDKIHHHHHHMKQSEQEEPLTGGNVSDVSRIGETVRREQKPESLRVHRVLQHLEQKGFEGSPRYLGIDPQGREILSFIEGEAGNYPLQPYMQSDRVLEETARLLRSYHEAVADFPIPTDWQPLDGTPEPLELICHNDFAVYNVIFQNERPVGIIDFEVAAPGPRIWDIAYTMYTFVPLSRHQMTEDGEPAHYNPVNDQERIRRRVLLFLSAYGKAELKDEMYETVLLRVEALIKTIHRRAAEGDDAFQRMIDDGHVTHYEQEIDFLKREGADWFR, MGSDKIHHHHHHMKQSKKIIITCAVTGSIHTPTMSPYLPITPEEIVKEGVAAAEAGAAMLHLHARDPLNGRPSQDPDLFMRFLPQLKERTDAILNITTGGGLGMSLDERLAPARAARPEVASMNMGSLNFNISQAAAKFDTFKFDWERPYLAGTRDFILSNTFSQIERGMTELGASGTRFEFECYDVGHLYNLAHFVDRKLVEPPFFLQCVFGILGGIGADPENLLHMRTIADRLFGQDYYLSVLAAGRHQMPFVTMSAILGGNVRVGLEDSLYSGKGQLATSNAEQVRKIRRIIEELSLDIATPDEARAMLKTKGANETSF, MGSDKIHHHHHHMKRPLKVLVVGAKFGELYLNSFLLEQPGLQLAGLLANGSPRARALANAFGIALYTDIEQLPDDLDIACVVVRSAVVGGAGGQLTESLLRRGLHVIQEHPVHPDELVRHQQLATRMGCQYIVNSFYPHTEAGRCWAGTAQRISRLLEGRKPNLAQLTTSRQLLYSGLDLLFQALGCDLARQVSVSLLDGDDDFHTLSLNLPDSRVLLRLQRWMAADDPDLHSLVMHQLNLAWPSGYLSLDATYGPVNWTPALHAEAHDDDRQTLYTSNADYLQHATAMPLHPAASHWRSAHEIEGPAGVGWLLQQLLAVLQGRPRADGLQADYQLAVARLWQDILRCAGPAEQRMASAPLFIDAAQLRAEG, MGSDKIHHHHHHMKSILLFMIFVVCQLEGKKFSQDNFKVDYNYYLRKQDLHIIKTQNDLSNSWYLPPQKAPKEHSWVDFAKKYLNMMDYLGTYFLPFYHSFTPIFQWYHPNINPYQRNEFKFQISFRVPVFRHILWTKGTLYLAYTQTDWFQIYNDPQSAPMRMMNFMPELIYVYPINFKPFGGKIGNFSEIWIGWQHISNGVGGAQCYQPFNKEGNPENQFPGQPVIVKDYNGQKDVRWGGCRSVSAGQRPVFRLVWEKGGLKIMVAYWPYVPYDQSNPNLIDYMGYGNAKIDYRRGRHHFELQLYDIFTQYWRYDRWHGAFRLGYTYRINPFVGIYAQWFNGYGDGLYEYDVFSNRIGVGIRLNP, MGSDKIHHHHHHMKSTTVPSEGGGGLDATTRTSVQPHPLHGPDATWQETNCYIDLWIELLHAWGLDPRAALPFTVAQDFEGDHFTFFKYPQADLETLYGTVVQEMAVYDTLQAHVVTQVERGHTVLVEVDSYYLPDTHATAYKREHVKTTVAIDNIDPHAQRLSYFHSLGYHSAHDEDYRGLMRLSRELSGNGNILFPYAECAKRVRPALTMPAMADASVALMRQHLDRLPAINPVTLWRREFDAHMDTLLARDDAYFHLYTFNLPRQLGANFEMLHHWLRWLDEQGRGNPLAARAAESAATIAAEAKVLQFRLARAVARRRADPCTQSLDVLECCYDKTVEGLLSAFGDTRLAAA, MGSDKIHHHHHHMKSVQDRLSQTTNPSPKSYQQLYQEIVSDPEVAAFIKKEGLTQQEITLSISKFLEYISQRDLFVKQDEAYIAKGYQPVLVMNEGYADVSYLETEELVEYRRLEAIKNRIQLINMPASLKNVTVADIDKSDENRVEVMLAIADFVKRFEEKPKGLYIYGNFGIGKSYLMAYLANLLSKTHLQSTTMLHYPTFVVDIKNAIKDGSVKERIDEIKMAQVLVLDDIGAEQHSPWVRDDVLQVILQYRMQENLPTFFTSNFSFDDLERHFASGKSGDETWQAKRVMERIRYLARDLHLKGNNRR, MGSDKIHHHHHHMKSWVENVTIKKYEDRSGLTGLKQGPLVWTEVFLREVNRQSNTGILHFWPMDQTVILGMMDSQVAQLDKGLASIGQAGYSPIIRSLGGLAVVADDGILNVTLIFPNPSGHKVDLRESYQVMVDLIAQALSDFPFEVVSGEVATSYCPGTYDLSIKGRKFAGLAQRIYQEAIAISAYISVSGNQVKRGQVVADFYAASFAPQEVSDRFPQVNPNSMANLSDLVAQDLTMEDMKIRIEHVLIENGAFLTTFYPSSDNMADFMALGKTIKQSMEKYGI, MGSDKIHHHHHHMKTIMYLHAGAEMYGSDKVLLQLVTGLDKKQFKPIVVLPEHGPLEKALETNDIQTEVVAYPILRRKYFNPKGIFNYASGYFKAEKVLANLAIKYHVDLIHVNTLAVLEGITLKKRIKKPLIWHVHEILLSPKFMWKLTAYLSAKYADKIVVVSNATGEHLKKAGYAKENQIVTIYNGINIPKGLENSDFRQEFDIPKNAFVFGHVGRINAWKGQEDFLKASLKLMSNYSKVHVLFSGNAYKGEEWREEKLKKEINESGFSDRIHYLGFQHEIRKVFNTMNVFVSSSIRPDPFPMVTLEAMANSKPIVSYDHGGPSELIVNAKTGYLVQPHNIDDLSLKMSMLINPKLESKFGVVGRKRVLSEFSETKFLQNFSFLYGDM
